T1: cynomolgus monkey FcγRIIa1 extracellular domain, C-terminal His-tag (cynomolgus monkey)
T1 construct: also called cyno FcγRIIa1; cynoFcgRIIa1; not shown: His-tag added to C-terminus
T1 chain: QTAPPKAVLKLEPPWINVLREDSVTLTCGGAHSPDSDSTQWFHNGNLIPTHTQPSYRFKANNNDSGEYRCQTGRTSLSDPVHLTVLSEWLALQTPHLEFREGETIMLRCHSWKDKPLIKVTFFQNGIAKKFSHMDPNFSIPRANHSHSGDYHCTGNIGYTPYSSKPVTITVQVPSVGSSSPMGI

T2: cynomolgus monkey FcγRIIa2 extracellular domain, C-terminal His-tag (cynomolgus monkey)
T2 construct: also called cyno FcγRIIa2; cynoFcgRIIa2; not shown: His-tag added to C-terminus
T2 chain: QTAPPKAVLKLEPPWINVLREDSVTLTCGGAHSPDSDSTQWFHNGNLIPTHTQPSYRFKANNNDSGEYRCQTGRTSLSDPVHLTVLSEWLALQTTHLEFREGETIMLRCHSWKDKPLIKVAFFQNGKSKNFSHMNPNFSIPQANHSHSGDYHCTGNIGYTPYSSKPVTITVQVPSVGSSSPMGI

T3: cynomolgus monkey FcγRIIa3 extracellular domain, C-terminal His-tag (cynomolgus monkey)
T3 construct: also called cyno FcγRIIa3; cynoFcgRIIa3; not shown: His-tag added to C-terminus
T3 chain: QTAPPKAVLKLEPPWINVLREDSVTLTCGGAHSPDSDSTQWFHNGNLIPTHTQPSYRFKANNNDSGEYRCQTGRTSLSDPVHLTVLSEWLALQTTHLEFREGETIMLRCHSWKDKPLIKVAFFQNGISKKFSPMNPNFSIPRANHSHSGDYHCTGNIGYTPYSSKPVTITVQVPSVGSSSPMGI

T4: cynomolgus monkey FcγRIIb extracellular domain, C-terminal His-tag (cynomolgus monkey)
T4 construct: also called cyno FcγRIIb; cynoFcγRIIb; not shown: His-tag added to C-terminus
T4 chain: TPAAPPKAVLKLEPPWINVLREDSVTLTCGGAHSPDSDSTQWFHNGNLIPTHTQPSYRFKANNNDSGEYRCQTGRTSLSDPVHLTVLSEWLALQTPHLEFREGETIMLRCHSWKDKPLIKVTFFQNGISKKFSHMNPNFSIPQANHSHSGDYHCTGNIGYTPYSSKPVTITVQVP

T5: human FcγRIIaH extracellular domain, C-terminal His-tag (human, UniProt P12318 34-217)
T5 construct: also called human FcγRIIa (type H); FcgRIIaH; not shown: His-tag added to C-terminus
T5 sequence: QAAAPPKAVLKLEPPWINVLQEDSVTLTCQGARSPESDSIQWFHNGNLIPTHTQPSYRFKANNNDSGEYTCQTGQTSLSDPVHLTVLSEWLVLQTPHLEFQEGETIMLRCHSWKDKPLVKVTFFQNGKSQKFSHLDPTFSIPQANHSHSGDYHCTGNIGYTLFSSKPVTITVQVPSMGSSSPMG

T6: human FcγRIIaR extracellular domain, C-terminal His-tag (human, UniProt P12318 34-217)
T6 construct: also called human FcγRIIa (type R); FcgRIIaR; not shown: His-tag added to C-terminus
T6 chain: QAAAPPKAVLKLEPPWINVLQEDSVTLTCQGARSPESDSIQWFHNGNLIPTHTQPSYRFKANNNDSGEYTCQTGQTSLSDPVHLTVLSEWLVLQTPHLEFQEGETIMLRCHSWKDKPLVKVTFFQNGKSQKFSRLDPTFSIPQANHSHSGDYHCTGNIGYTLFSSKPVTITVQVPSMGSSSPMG

T7: human FcγRIIb extracellular domain, C-terminal His-tag (human, UniProt P31994 43-217)
T7 construct: also called FcgRIIb (human); not shown: His-tag added to C-terminus
T7 sequence: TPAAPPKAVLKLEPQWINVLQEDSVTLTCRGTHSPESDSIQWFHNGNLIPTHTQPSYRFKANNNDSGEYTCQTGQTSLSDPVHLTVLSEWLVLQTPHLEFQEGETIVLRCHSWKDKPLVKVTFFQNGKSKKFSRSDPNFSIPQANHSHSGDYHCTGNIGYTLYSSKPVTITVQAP


Key:
Assay in all cases: SPR (Biacore), antibody captured, FcgR analyte, 25 C
[1] = molecular target: T1, cynomolgus monkey FcγRIIa1 …
Description: (§1) The kinetic analysis of interactions between these antibodies and FcγR was carried out using BIACORE® T200 or BIACORE® 4000 (GE Healthcare). HBS-EP+ (GE Healthcare) was used as the running buffer, and the measurement temperature was set to 25° C. A chip produced by immobilizing Protein A. Protein A/G or mouse anti-human IgG kappa light chain (BD Biosciences) onto a Series S Sensor Chip CM4 or CM5 (GE Healthcare) by the amine-coupling method was used. […] After the measurement, the antibody captured on the chip was washed off by allowing reaction with 10 mM glycine-HCl, pH1.5 and 25 mM NaOH so that the chip was regenerated and used repeatedly. The sensorgrams obtained as measurement results were analyzed by the 1:1 Langmuir binding model using the BIACORE® Evaluation Software to calculate the binding rate constant ka (L/mol/s) and dissociation rate constant kd (l/s), and the dissociation constant KD (mol/L) was calculated from these values. […] Regarding such interactions, KD values were calculated using the following 1:1 binding model described in BIACORE® T100 Software Handbook BR1006-48 Edition AE.
(§2) The behavior of interacting molecules according to the 1:1 binding model on BIACORE® can be described by Equation 1: Req=C·R max/(KD+C)+RI, wherein, Req is a plot of steady-state binding levels to analyte concentration. C is concentration, RI is bulk refractive index contribution in the sample, and Rmax is analyte binding capacity of the surface. When this equation is rearranged, KD can be expressed as Equation 2: KD=C·Rmax/(Req−RI)−C. KD can be calculated by substituting the values of Rmax, RI, and C into Equation 1 or Equation 2. From the current measurement conditions, RI=0, C=2 μmol/L can be used.

[2] = molecular target: T2, cynomolgus monkey FcγRIIa2 …
Description: as §1, §2

[3] = molecular target: T3, cynomolgus monkey FcγRIIa3 …
Description: as §1, §2

[4] = molecular target: T4, cynomolgus monkey FcγRIIb extracellular …
Description: as §1, §2

[5] = molecular target: T8, cynomolgus monkey FcγRIIIaS extracellular domain, C-terminal His-tag (cynomolgus monkey, UniProt A3RFZ7 21-206 (rhesus entry))
T8 construct: also called cyno FcγRIIIaS; cynoFcγRIIIaS; not shown: His-tag added to C-terminus
Description: as §1, §2

[6] = molecular target: T5, human FcγRIIaH extracellular domain, …
Description: as §1, §2

[7] = molecular target: T6, human FcγRIIaR extracellular domain, …
Description: as §1, §2

[8] = molecular target: T7, human FcγRIIb extracellular domain, …
Description: as §1, §2

[9] = molecular target: T9, human FcγRIIIaV extracellular domain, C-terminal His-tag (human, UniProt P08637 17-208)
T9 construct: also called FcgRIIIaV; not shown: His-tag added to C-terminus
Description: as §1, §2

T8 sequence (A3RFZ7 21-206): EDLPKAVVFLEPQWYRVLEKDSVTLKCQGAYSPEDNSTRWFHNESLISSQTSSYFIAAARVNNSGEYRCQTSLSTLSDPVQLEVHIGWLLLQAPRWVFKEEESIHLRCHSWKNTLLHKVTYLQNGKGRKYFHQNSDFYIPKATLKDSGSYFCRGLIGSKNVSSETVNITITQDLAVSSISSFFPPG
T9 sequence (P08637 17-208 F176V): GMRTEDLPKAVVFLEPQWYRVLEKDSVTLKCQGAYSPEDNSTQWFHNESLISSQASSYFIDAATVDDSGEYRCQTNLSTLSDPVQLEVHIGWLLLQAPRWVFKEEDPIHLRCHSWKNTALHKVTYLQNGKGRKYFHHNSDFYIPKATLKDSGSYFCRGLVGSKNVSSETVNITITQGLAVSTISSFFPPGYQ

| Binder | Kd [1] | Kd [2] | Kd [3] | Kd [4] | Kd [5] | Kd [6] | Kd [7] | Kd [8] | Kd [9] |
| --- | --- | --- | --- | --- | --- | --- | --- | --- | --- |
| M103205H795-MY325/M103202L889-SK1 (antibody, human IgG1, kappa) heavy: QVTLKESGPVLVKPTETLTLTCTVSGIDLSHDDISWVRQAPGKGLEWVGIISYAGSTYYASWAKGRLTISKDTSKNQVVLTMTNMDPVDTATYYCARGVPAYSHGGDLWGQGTLVTVSSASTKGPSVFPLAPSSKSTSGGTAALGCLVKDYFPEPVTVSWNSGALTSGVHTFPAVLQSSGLYSLSSVVTVPSSSLGTQTYICNVNHKPSNTKVDKKVEPKSCDKTHTCPPCPAPELLDGPSVFLFPPKPKDTLMISRTPEVTCVVVDVSDEDPEVKFNWYVDGVEVHNAKTKPREEQYNSTYRVVSVLTVLHQDWLNGKEYKCKVSNKALPKPIEKTISKAKGQPREPQVYTLPPSREEMTKNQVSLTCLVKGFYPSDIAVEWESNGQPENNYKTTPPVLDSDGSFFLYSKLTVDKSRWQQGNVFSCSVMHEALHNHYTQKSLSLSP light: DIVMTQSPATLSLSPGERATLSCTSSQSVYHANWLSWFQQKPGQPPKLLIYWASTLAYGVPSRFSGSGSGTDFTLTISSLQPEDAATYYCAGGYGGGRYAFGQGTKVEIKRTVAAPSVFIFPPSDEQLKSGTASVVCLLNNFYPREAKVQWKVDNALQSGNSQESVTEQDSKDSTYSLSSTLTLSKADYEKHKVYACEVTHQGLSSPVTKSFNRGEC | 4000 nM | 4400 nM | 5800 nM | 950 nM | 4000 nM | 510 nM | 300 nM | 260 nM | 8100 nM |
| M103205H795-MY327/M103202L889-SK1 (antibody, human IgG1, kappa) heavy: QVTLKESGPVLVKPTETLTLTCTVSGIDLSHDDISWVRQAPGKGLEWVGIISYAGSTYYASWAKGRLTISKDTSKNQVVLTMTNMDPVDTATYYCARGVPAYSHGGDLWGQGTLVTVSSASTKGPSVFPLAPSSKSTSGGTAALGCLVKDYFPEPVTVSWNSGALTSGVHTFPAVLQSSGLYSLSSVVTVPSSSLGTQTYICNVNHKPSNTKVDKKVEPKSCDKTHTCPPCPAPELLDGPSVFLFPPKPKDTLMISRTPEVTCVVVDVSEEDPEVKFNWYVDGVEVHNAKTKPREELYNSTYRVVSVLTVLHQDWLNGKEYKCKVSNKALPKPIEKTISKAKGQPREPQVYTLPPSREEMTKNQVSLTCLVKGFYPSDIAVEWESNGQPENNYKTTPPVLDSDGSFFLYSKLTVDKSRWQQGNVFSCSVMHEALHNHYTQKSLSLSP light: DIVMTQSPATLSLSPGERATLSCTSSQSVYHANWLSWFQQKPGQPPKLLIYWASTLAYGVPSRFSGSGSGTDFTLTISSLQPEDAATYYCAGGYGGGRYAFGQGTKVEIKRTVAAPSVFIFPPSDEQLKSGTASVVCLLNNFYPREAKVQWKVDNALQSGNSQESVTEQDSKDSTYSLSSTLTLSKADYEKHKVYACEVTHQGLSSPVTKSFNRGEC | 3400 nM | 4800 nM | 5300 nM | 1000 nM | 4300 nM | 350 nM | 200 nM | 170 nM | 9900 nM |
| M103205H795-MY329/M103202L889-SK1 (antibody, human IgG1, kappa) heavy: QVTLKESGPVLVKPTETLTLTCTVSGIDLSHDDISWVRQAPGKGLEWVGIISYAGSTYYASWAKGRLTISKDTSKNQVVLTMTNMDPVDTATYYCARGVPAYSHGGDLWGQGTLVTVSSASTKGPSVFPLAPSSKSTSGGTAALGCLVKDYFPEPVTVSWNSGALTSGVHTFPAVLQSSGLYSLSSVVTVPSSSLGTQTYICNVNHKPSNTKVDKKVEPKSCDKTHTCPPCPAPELLDGPSVFLFPPKPKDTLMISRTPEVTCVVVDVSDEDPEVKFNWYVDGVEVHNAKTKPREELYNSTYRVVSVLTVLHQDWLNGKEYKCKVSNKALPKPIEKTISKAKGQPREPQVYTLPPSREEMTKNQVSLTCLVKGFYPSDIAVEWESNGQPENNYKTTPPVLDSDGSFFLYSKLTVDKSRWQQGNVFSCSVMHEALHNHYTQKSLSLSP light: DIVMTQSPATLSLSPGERATLSCTSSQSVYHANWLSWFQQKPGQPPKLLIYWASTLAYGVPSRFSGSGSGTDFTLTISSLQPEDAATYYCAGGYGGGRYAFGQGTKVEIKRTVAAPSVFIFPPSDEQLKSGTASVVCLLNNFYPREAKVQWKVDNALQSGNSQESVTEQDSKDSTYSLSSTLTLSKADYEKHKVYACEVTHQGLSSPVTKSFNRGEC | 1900 nM | 3200 nM | 3700 nM | 590 nM | 2300 nM | 270 nM | 210 nM | 160 nM | 6400 nM |

Source: patent publication US20200317768A1 (published 2020)
